Measured values as given in patent US9566335.

Key:
[1] = molecular target: biotinylated peptide X-…(biotin), X = A; assay: phage ELISA, biotinylated peptide on neutravidin
[2] = molecular target: biotinylated peptide X-…(biotin), X = C; assay: phage ELISA, biotinylated peptide on neutravidin
[3] = molecular target: biotinylated peptide X-…(biotin), X = D; assay: phage ELISA, biotinylated peptide on neutravidin
[4] = molecular target: biotinylated peptide X-…(biotin), X = E; assay: phage ELISA, biotinylated peptide on neutravidin
[5] = molecular target: biotinylated peptide X-…(biotin), X = G; assay: phage ELISA, biotinylated peptide on neutravidin
[6] = molecular target: biotinylated peptide X-…(biotin), X = H; assay: phage ELISA, biotinylated peptide on neutravidin
[7] = molecular target: biotinylated peptide X-…(biotin), X = I; assay: phage ELISA, biotinylated peptide on neutravidin
[8] = molecular target: biotinylated peptide X-…(biotin), X = K; assay: phage ELISA, biotinylated peptide on neutravidin
[9] = molecular target: biotinylated peptide X-…(biotin), X = M; assay: phage ELISA, biotinylated peptide on neutravidin
[10] = molecular target: biotinylated peptide X-…(biotin), X = N; assay: phage ELISA, biotinylated peptide on neutravidin
[11] = molecular target: biotinylated peptide X-…(biotin), X = P; assay: phage ELISA, biotinylated peptide on neutravidin
[12] = molecular target: biotinylated peptide X-…(biotin), X = Q; assay: phage ELISA, biotinylated peptide on neutravidin
[13] = molecular target: biotinylated peptide X-…(biotin), X = R; assay: phage ELISA, biotinylated peptide on neutravidin
[14] = molecular target: biotinylated peptide X-…(biotin), X = S; assay: phage ELISA, biotinylated peptide on neutravidin
[15] = molecular target: biotinylated peptide X-…(biotin), X = T; assay: phage ELISA, biotinylated peptide on neutravidin
[16] = molecular target: biotinylated peptide X-…(biotin), X = V; assay: phage ELISA, biotinylated peptide on neutravidin
[17] = molecular target: biotinylated peptide X-…(biotin), X = A; assay: phage ELISA, biotinylated peptide on neutravidin; phage 10×
[18] = molecular target: biotinylated peptide X-…(biotin), X = C; assay: as above
[19] = molecular target: biotinylated peptide X-…(biotin), X = D; assay: as above
[20] = molecular target: biotinylated peptide X-…(biotin), X = E; assay: as above
[21] = molecular target: biotinylated peptide X-…(biotin), X = G; assay: as above
[22] = molecular target: biotinylated peptide X-…(biotin), X = H; assay: as above
[23] = molecular target: biotinylated peptide X-…(biotin), X = I; assay: as above
[24] = molecular target: biotinylated peptide X-…(biotin), X = K; assay: as above
[25] = molecular target: biotinylated peptide X-…(biotin), X = M; assay: as above
[26] = molecular target: biotinylated peptide X-…(biotin), X = N; assay: as above
[27] = molecular target: biotinylated peptide X-…(biotin), X = P; assay: as above
[28] = molecular target: biotinylated peptide X-…(biotin), X = Q; assay: as above
[29] = molecular target: biotinylated peptide X-…(biotin), X = R; assay: as above
[30] = molecular target: biotinylated peptide X-…(biotin), X = S; assay: as above
[31] = molecular target: biotinylated peptide X-…(biotin), X = T; assay: as above
[32] = molecular target: biotinylated peptide X-…(biotin), X = V; assay: as above

B1: Phage displayed wild-type E. coli ClpS (truncated wildtype ClpS polypeptide, FLAG-tagged, fused to phage coat protein p3) (protein)
chain: KPPSMYKVILVNDDYTPMEFVIDVLQKFFSYDVERATQLMLAVHYQGKAICGVFTAEVAETKVAMVNKYARENEHPLLCTLEKA
Question: With B1 as the binder, how does the phage ELISA signal (A450) [1] read?
Answer: The phage ELISA signal (A450) was -0.29.

Question: And the phage ELISA signal (A450) [2]?
Answer: Its phage ELISA signal (A450) is -0.23.

Question: And the phage ELISA signal (A450) [3]?
Answer: Its phage ELISA signal (A450) is -0.29.

Question: What about the phage ELISA signal (A450) [4] of the same binder?
Answer: Its phage ELISA signal (A450) is -0.26.

Question: What about the phage ELISA signal (A450) [5] of the same binder?
Answer: Its phage ELISA signal (A450) is -0.04.

Question: What about the phage ELISA signal (A450) [6] of the same binder?
Answer: Its phage ELISA signal (A450) is -0.03.

Question: And the phage ELISA signal (A450) [7]?
Answer: The phage ELISA signal (A450) was -0.016.

Question: What about the phage ELISA signal (A450) [8] of the same binder?
Answer: The phage ELISA signal (A450) was 0.05.

Question: And the phage ELISA signal (A450) [9]?
Answer: Its phage ELISA signal (A450) is -0.11.

Question: And the phage ELISA signal (A450) [10]?
Answer: Its phage ELISA signal (A450) is -0.05.

Question: And the phage ELISA signal (A450) [11]?
Answer: Its phage ELISA signal (A450) is -0.07.

Question: And the phage ELISA signal (A450) [12]?
Answer: The phage ELISA signal (A450) was -0.18.

Question: And the phage ELISA signal (A450) [13]?
Answer: Its phage ELISA signal (A450) is 0.13.

Question: What about the phage ELISA signal (A450) [14] of the same binder?
Answer: Its phage ELISA signal (A450) is -0.01.

Question: What about the phage ELISA signal (A450) [15] of the same binder?
Answer: Its phage ELISA signal (A450) is 0.01.

Question: What about the phage ELISA signal (A450) [16] of the same binder?
Answer: The phage ELISA signal (A450) was -0.09.

Question: What about the phage ELISA signal (A450) [17] of the same binder?
Answer: The phage ELISA signal (A450) was -0.29.

Question: And the phage ELISA signal (A450) [18]?
Answer: Its phage ELISA signal (A450) is -0.23.

Question: What about the phage ELISA signal (A450) [19] of the same binder?
Answer: The phage ELISA signal (A450) was -0.29.

Question: And the phage ELISA signal (A450) [20]?
Answer: Its phage ELISA signal (A450) is -0.26.

Question: What about the phage ELISA signal (A450) [21] of the same binder?
Answer: The phage ELISA signal (A450) was -0.04.

Question: And the phage ELISA signal (A450) [22]?
Answer: The phage ELISA signal (A450) was -0.03.

Question: What about the phage ELISA signal (A450) [23] of the same binder?
Answer: Its phage ELISA signal (A450) is -0.16.

Question: What about the phage ELISA signal (A450) [24] of the same binder?
Answer: The phage ELISA signal (A450) was 0.05.

Question: What about the phage ELISA signal (A450) [25] of the same binder?
Answer: The phage ELISA signal (A450) was -0.11.

Question: What about the phage ELISA signal (A450) [26] of the same binder?
Answer: The phage ELISA signal (A450) was -0.05.

Question: What about the phage ELISA signal (A450) [27] of the same binder?
Answer: Its phage ELISA signal (A450) is -0.07.

Question: What about the phage ELISA signal (A450) [28] of the same binder?
Answer: The phage ELISA signal (A450) was -0.18.

Question: What about the phage ELISA signal (A450) [29] of the same binder?
Answer: Its phage ELISA signal (A450) is 0.13.

Question: And the phage ELISA signal (A450) [30]?
Answer: Its phage ELISA signal (A450) is -0.01.

Question: What about the phage ELISA signal (A450) [31] of the same binder?
Answer: Its phage ELISA signal (A450) is 0.01.

Question: What about the phage ELISA signal (A450) [32] of the same binder?
Answer: The phage ELISA signal (A450) was -0.09.
